Results from patent US6476190.

Experiments:
[1] = system: 2-aminobenzoyl-Thr-Ile-Nle-Phe(p-NO2)-Gln-Arg-NH2 (SEQ. ID NO. 4)
[2] = system: Ac-Thr-Ile-Nle-Nle-Gln-Arg-NH2 (SEQ ID NO 1)

Row | Substance | fluorogenic assay (fluorescence against time of incubation) [1] | cleavage of the peptide substrate (reverse phase HPLC; products identified by ion spray mass spectrometry) [2]
1 | [(NHCH2COSCH2CO)^51-52 Aba^67,95] HIV-1 PR | showed identical activities | The peptide products were identified by ion spray mass spectrometry as (H)-Nle-Gln-Arg. NH2 (early eluting) and Ac-Thr-Ile-Nle-(OH) (late eluting)
2 | {Aba^67,95,167,195} HIV-1 PR | showed identical activities | –
